{"source": "the nanobody polyreactivity screen of Harvey et al. (2022)", "data": [{"assay": "yeast display, Sf9 membrane polyspecificity reagent, FACS + sequencing; frameworks hold sequencing errors", "in_short": "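After 36–48 hours of galactose induction, yeast (Saccharomyces cerevisiae BJ5465) displaying a synthetic nanobody library were stained at 4 °C for 1 hour with 10% biotinylated, detergent-solubilized Sf9 membrane reagent. Streptavidin microbeads enriched the stained cells before FACS sorting into low and high (top ~1%) gates on anti-HA and streptavidin fluorescence. Each clone's polyreactivity label reflects its gate of origin.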", "values": [{"sequence": "QVQLVESGGGLVQAGGSLRLSCAASGRIFKKNAMGWYRQAPGKERELVAAISARGGSTYYADSVKGRFTISRDNAKNTVYLQMNSLKPEDTAVYYCAADEVDESIHYYTFDYWGQGTQVTVSS", "polyreactivity (PSR sort gate)": "high polyreactivity"}, {"sequence": "QVQLVESGGGLVQAGGSLRLSCAASGRIFKKNAMGWYRQAPGKERELVASITRGASTNYADSVKGRFTISRDNAKNTVYLQMNSLKPEDTAVYYCAAVITLNGDGPPSDYWGQGTQVTVSS", "polyreactivity (PSR sort gate)": "low polyreactivity"}, {"sequence": "QVQLVESGGGLVQAGGSLRLSCAASGRIFKKYAMGWYRQAPGKERELVATISSGGSTYYADSVKGRFTISRDNSKNTVYLQMNSLKPEDTAVYYCARREYVRRDYFVTTYDYWGQGTQVTVSS", "polyreactivity (PSR sort gate)": "low polyreactivity"}, {"sequence": "QVQLVESGGGLVQAGGSLRLSCAASGRIFKLNAMGWYRQAPGKERELVAAITRGGRTYYADSVKGRFTISRDNAKNTVYLQMNSLKPEDTAVYYCNKKTYQQTYKYDYWGQGTQVTVSS", "polyreactivity (PSR sort gate)": "high polyreactivity"}, {"sequence": "QVQLVESGGGLVQAGGSLRLSCAASGRIFKLYAMGWYRQEPGKVRELVASITWGGGSTNYADSVKGRFTISRDNAKNTVYLQMNSLKQEDTAVYYCAAVYSKFAVFWEYDYWGQGTQVTVSS", "polyreactivity (PSR sort gate)": "low polyreactivity"}, {"sequence": "QVQLVESGGGLVQAGGSLRLSCAASGRIFKNYAMGWYRQAPGKERELVAAISWSGGRTYYADSVKGRFTISRDNAKNTVYLQMNSLKPEDTAVYYCAASIRTGYRYGYWGQGTQVTVSS", "polyreactivity (PSR sort gate)": "high polyreactivity"}, {"sequence": "QVQLVESGGGLVQAGGSLRLSCAASGRIFKQYTMGWYRQAPGKERELVAAITSSGAGTFYADSVKGRFTISRDNAKNTVYLQMNSLKPEDTAVYYCAASWSRRDRGFDYWGQGTQVTVSS", "polyreactivity (PSR sort gate)": "high polyreactivity"}, {"sequence": "QVQLVESGGGLVQAGGSLRLSCAASGRIFKRNAMGWYRQAPGKERELVAAINWSGGSTYYADSVKGRFTISRDNAKNTVYLQMNSLKPEDTAVYYCAALRVQGDYDYWGQGTQVTVSS", "polyreactivity (PSR sort gate)": "high polyreactivity"}, {"sequence": "QVQLVESGGGLVQAGGSLRLSCAASGRIFKRYAMGWYRQAPGKERELVAAITRSGGSMYYADSVKGRFTISRDNAKNTVYLQMNSLKPEDTAVYYCNKVYGPHPERAVYYEGDYWGQGTQVTVSS", "polyreactivity (PSR sort gate)": "high polyreactivity"}, {"sequence": "QVQLVESGGGLVQAGGSLRLSCAASGRIFKRYDMGWYRQAPGKERELVAAITGTGGSTYYADSVKGRFTISRDNAKNTVYLQMNSLKPEDTAVYYCAARLYNTYSGFAFGYWGQGTQVTVSS", "polyreactivity (PSR sort gate)": "high polyreactivity"}, {"sequence": "QVQLVESGGGLVQAGGSLRLSCAASGRIFKRYDMGWYRQAPWKERELVAAITGTGGSTYYADSVKGRFTISRDNAKNTVYLQMNSLKPEDTAVYYCAARLYNTYSGFAFGYWGQGTQVTVSS", "polyreactivity (PSR sort gate)": "high polyreactivity"}, {"sequence": "QVQLVESGGGLVQAGGSLRLSCAASGRIFKSYAMGWYRQAPGKERELVASISYTGGSTYYADSVKGRFTISRDNAKNTVYLQMNSLKPEDTAVYYCAAKRVRSAGSYGYWGQGTQVTVSS", "polyreactivity (PSR sort gate)": "low polyreactivity"}, {"sequence": "QVQLVESGGGLVQAGGSLRLSCAASGRIFKVYAMGWYRQAPGKERELVASIRWNTGSTYYADSVKGRFTISRDNAKNTVYLQMNSLKPEDTAVYYCNARGYYQGRYGYWGQGTQVTVSS", "polyreactivity (PSR sort gate)": "high polyreactivity"}, {"sequence": "QVQLVESGGGLVQAGGSLRLSCAASGRIFKVYAMGWYRQAPGKERELVAVINGGGSTNYADSVKGRFTISRDNAKNTVYLQMNSLKPEDTAVYYCATEGYGHGGETDGGVYSDLGYWGQGTQVTVSS", "polyreactivity (PSR sort gate)": "low polyreactivity"}, {"sequence": "QVQLVESGGGLVQAGGSLRLSCAASGRIFKWYAMGWYRQAPGKERELVAVITVSGGSTTYADSVKGRFTISLDNAKNTVYLQMNSLKQEDTAVYYCNAVYYRSRFGTSIRYDYWGQGTQVTVSS", "polyreactivity (PSR sort gate)": "high polyreactivity"}, {"sequence": "QVQLVESGGGLVQAGGSLRLSCAASGRIFKYYAMGWYRQAPGKERELVAAITRGGSTNYADSVKGRFTISRDNASNTVYLQMTSLKPEDTAVYYCAVVTVRNHRMDYWGQGTQVTVSS", "polyreactivity (PSR sort gate)": "low polyreactivity"}, {"sequence": "QVQLVESGGGLVQAGGSLRLSCAASGRIFKYYAMGWYRQAPGKERELVAAITSGGSTYYADSVKGRFTISRDNAKNTVYLQMNSLKPEDTAVYYCNADGYLSYAFDYWGQGTQVTVSS", "polyreactivity (PSR sort gate)": "low polyreactivity"}, {"sequence": "QVQLVESGGGLVQAGGSLRLSCAASGRIFKYYAMGWYRQAPGKERELVARISSSGGSTYYADSVKGRFTISRDNAKNTVYLQMNSLKPEDTAVYYCNARYYSTKYFLGDYWGQGTQVTVSS", "polyreactivity (PSR sort gate)": "high polyreactivity"}, {"sequence": "QVQLVESGGGLVQAGGSLRLSCAASGRIFKYYAMGWYRQAPGTERELVAAITSGGSTYYADSVKGRFTISRDNAKNTVYLQMNSLKPEDTAVYYCNADGYLSYAFDYWGQGTQVTVSS", "polyreactivity (PSR sort gate)": "low polyreactivity"}, {"sequence": "QVQLVESGGGLVQAGGSLRLSCAASGRIFKYYGMGWYRQAPGKERELVAAITRGDSTNYADSVKGRFTISRDNAKNTVYLQMNSLKPEDTAVYYCNVGTRRGYDYWGQGTQVTVSS", "polyreactivity (PSR sort gate)": "high polyreactivity"}, {"sequence": "QVQLVESGGGLVQAGGSLRLSCAASGRIFKYYTMGWYRQAPGKERELVARISSSGGSTYYADSVKGRFTISRDNAKNTVYLQMNSLKPEDTAVYYCNTRAAYHQTTHKYERDYWGQGSQVTVSS", "polyreactivity (PSR sort gate)": "low polyreactivity"}, {"sequence": "QVQLVESGGGLVQAGGSLRLSCAASGRIFLFYAMGWYRQAPGKERELVAAISSTDDTYYADSVKGRFTISRDNAKNTVYLQMNSLKPEDTAVYYSAAYSIISQSEMYYRGQGTQVTVSS", "polyreactivity (PSR sort gate)": "low polyreactivity"}, {"sequence": "QVQLVESGGGLVQAGGSLRLSCAASGRIFLFYAMGWYRQAPGKERELVAGIRSGGSTNYADSVKGRFTISRDNAKNTVYLQMNSLKPEDTAVYYCAAASYFVYPRLEGYWGQGTQVTVSS", "polyreactivity (PSR sort gate)": "low polyreactivity"}, {"sequence": "QVQLVESGGGLVQAGGSLRLSCAASGRIFLGNAMGWYRQAPGKERELVAAIDASGGSTYYADSVKGRFTISRDNAKNTVYLQMNSLKPEDTAVYYCAADRGFLRSFAPGNMDYWGQGTQVTVSS", "polyreactivity (PSR sort gate)": "low polyreactivity"}, {"sequence": "QVQLVESGGGLVQAGGSLRLSCAASGRIFLGNAMGWYRQAPWKESELVAAITNGGGSTSYADSVKGRFTISRDNAKNTVYLQMNSLKPEDTAVYYCARGYKKSVQRFEYRGQGTQVTVSS", "polyreactivity (PSR sort gate)": "high polyreactivity"}, {"sequence": "QVQLVESGGGLVQAGGSLRLSCAASGRIFLGNTMGCYRQAPGKERELVAAISKRGGSTYYVDSVKGRFTISRDNAKNTVYLQMNSLKPEDTAVYYCNAGPLYSGVYSGYYWGQGTQVTVSS", "polyreactivity (PSR sort gate)": "high polyreactivity"}, {"sequence": "QVQLVESGGGLVQAGGSLRLSCAASGRIFLGNVMGWYRQAPGKERELVAAISWSGGSTYADSVKGRFTISRDNAKNTVYLQMNSLKPEDTAVYYCNAELGSYDKDYDYWGQGTQVTVSS", "polyreactivity (PSR sort gate)": "low polyreactivity"}, {"sequence": "QVQLVESGGGLVQAGGSLRLSCAASGRIFLGYAMGRYRQAPGKERELVAAITFSGGSTYYADSVKGRFTISRDNAKNTVYLQMNSLKPEDTAVYYCAAPRLRRTYPRNRYDYWGQGTQVTVSS", "polyreactivity (PSR sort gate)": "low polyreactivity"}, {"sequence": "QVQLVESGGGLVQAGGSLRLSCAASGRIFLGYAMGWYRQPPGKVSELVAAINSVASTNYADSVKGRFTISRDNAKNTVYLQMNSLKPEDTAVYYCAAVYFLVQSDLPAYDYWGQGTLVTVSS", "polyreactivity (PSR sort gate)": "low polyreactivity"}, {"sequence": "QVQLVESGGGLVQAGGSLRLSCAASGRIFLKYAMGWYRHAPGKERELVAAISLSTGSTYYADSVKGRFTISRDNAKNTVYLQMNSLKAEDTAVYYCAATRKYRYVYWGQGTQGTVSS", "polyreactivity (PSR sort gate)": "high polyreactivity"}, {"sequence": "QVQLVESGGGLVQAGGSLRLSCAASGRIFLKYTMGWYRQAPGKERELVAAISRGGSTYYADSVKGRFTISRDNAKNTVYLQMNSLKPEDTAVYYCAARRSRPTYYSTGVNYWGQGTQVTVSS", "polyreactivity (PSR sort gate)": "high polyreactivity"}, {"sequence": "QVQLVESGGGLVQAGGSLRLSCAASGRIFLPYAMGWYRQAPGKERELVAAIDTNGGSTYYADSVKGRFTISRDNAKNTVYLQMNSLKPEDSAVYYCAAEVYDYTYVVTFLYDYWGQGTQVTVSS", "polyreactivity (PSR sort gate)": "high polyreactivity"}, {"sequence": "QVQLVESGGGLVQAGGSLRLSCAASGRIFLPYAMGWYRQAPGKERELVAAITQSGVITSYADSVKGRFTISRDNAKNTVYLQMNSLKPVDTAVYYCATVRTVIVFRFPYSYGYWGQGTQVTVSS", "polyreactivity (PSR sort gate)": "high polyreactivity"}, {"sequence": "QVQLVESGGGLVQAGGSLRLSCAASGRIFLRNAMGWYRQAPGKERELVAAISRRGATTYYADSVKGRFTISRDNAKNTVYLQMNSLKPEDTAVYYCAKRVWETDYDYWGQGTQVTVSS", "polyreactivity (PSR sort gate)": "high polyreactivity"}, {"sequence": "QVQLVESGGGLVQAGGSLRLSCAASGRIFLRNAMGWYRQAPGKERELVAGINSGGSTYYADSVKGRFTISRDNAKNTVYLQMNSLKPEDTAVYYCAADDGNFLSEDRDSYYGYDYWGQGTQVTVSS", "polyreactivity (PSR sort gate)": "low polyreactivity"}, {"sequence": "QVQLVESGGGLVQAGGSLRLSCAASGRIFLSYAMGWYRQAPGKERELVAGITWNGGSTYYADSVKGRFTISRDNAKNTVYLQMNSLKPEDTAVFYCAADYFGFSYAGYNYWGQGTQVTVSS", "polyreactivity (PSR sort gate)": "low polyreactivity"}, {"sequence": "QVQLVESGGGLVQAGGSLRLSCAASGRIFLSYAMGWYRQAPGKERELVAGITWNGGSTYYADSVKGRFTISRDNAKNTVYLQMNSLKPEDTAVYYCAATRFSYVFPYRYDYWGQGTQVTVSS", "polyreactivity (PSR sort gate)": "low polyreactivity"}, {"sequence": "QVQLVESGGGLVQAGGSLRLSCAASGRIFLTYAMGWYRQAPGKERELVAAITRRGGRTNYADSVKGRFTISRDNAKNTVYLQMNSLKPEDTAVYYCAKSPWPSHLDYDYWGQGTQVTVSS", "polyreactivity (PSR sort gate)": "low polyreactivity"}, {"sequence": "QVQLVESGGGLVQAGGSLRLSCAASGRIFLTYVMGWYRQAPGKERELVAAITSSGGTTYYADSVKGRFTISRDNAKNTVYLQMKSLKPEDTAVYYCNAGSSYQYGPRYNYWGQGTQVTVSS", "polyreactivity (PSR sort gate)": "low polyreactivity"}, {"sequence": "QVQLVESGGGLVQAGGSLRLSCAASGRIFLVYAMGRYRQAPGKERELVAAITSDGRTYYADSVKGRFTISRDNAKNTVYLQMNSLKPEDTAVYYCAADRYGAGYLYWPYDYWGQGTQVTVSS", "polyreactivity (PSR sort gate)": "low polyreactivity"}, {"sequence": "QVQLVESGGGLVQAGGSLRLSCAASGRIFLYNAMGSYRQAPGKVRELVASISSGVTTNYADSVKGRFTISRDNAKKTVYLQMNSLKPEDTAVYYCAADGQYSVIVKYDSWGQGTQVTVSS", "polyreactivity (PSR sort gate)": "low polyreactivity"}, {"sequence": "QVQLVESGGGLVQAGGSLRLSCAASGRIFLYNAMGWYRQAPGKERELVAAITASGGTTYYADSVKGRFTISRDNAKNTVYLQMNSLKPEDNAVYYCNAYSYSGERYYWGQGTQVTVSS", "polyreactivity (PSR sort gate)": "high polyreactivity"}, {"sequence": "QVQLVESGGGLVQAGGSLRLSCAASGRIFLYNVMGWYRQAPGKERELVAAISWSGTRTYYADSVKGRFTISRDNAKNTVYLQMNSLKPEDTAVYYCNACRYYRHDYWGQGTQVTVSS", "polyreactivity (PSR sort gate)": "low polyreactivity"}]}]}
